Our source for the Ki values is patent US6989362 (ROCKEFELLER UNIVERSITY, dated 2006).

The target in this assay is purified catalytic subunit of cAMP-dependent protein kinase (PKA). In words: kinetic analysis of PKA phosphorylation of ARPP-21 at 0-15 uM phospho-Thr75 DARPP-32; Lineweaver-Burk and secondary plot, competitive inhibition.

B1: phospho-Thr75 DARPP-32 (other)
chain: MDPKDRKKIQFSVPAPPSQLDPRQVEMIRRRRPTPAMLFRLSEHSSPEEEASPHQRASGEGHHLKSKRPNPCAYTPPSLKAVQRIAESHLQSISNLNENQASEEEDELGELRELGYPREEDEEEEEDDEEEEEEEDSQAEVLKVIRQSAGQKTTRGLGLEGPWERPPPLDESERDGGSEDQVEDPALSEPGEEPQRPSPSEPGR
For B1, the Ki came to 2700 nM.
